Assays:
[1] = molecular target: Acinetobacter baumannii ApeQ (β-ketoacyl-ACP reductase of the aryl polyene biosynthesis gene cluster) (Acinetobacter baumannii (clinical CRAB strain C1)); assay: crystal structure; apo AbApeQ, space group P3_(1)2, four molecules in the asymmetric unit
[2] = molecular target: Acinetobacter baumannii ApeQ (β-ketoacyl-ACP reductase of the aryl polyene biosynthesis gene cluster) (Acinetobacter baumannii (clinical CRAB strain C1)); assay: crystal structure; AbApeQ co-crystallised with NADPH (1:3 molar ratio), space group P2_(1), four molecules in the asymmetric unit
[3] = molecular target: Acinetobacter baumannii FabG (β-ketoacyl-ACP reductase of the fatty acid synthase gene cluster) (Acinetobacter baumannii (clinical CRAB strain C1)) (UniProt V5VHN7); assay: crystal structure; apo AbFabG, 1.79 Å, four molecules in the asymmetric unit

Row | stoichiometry N [1] | stoichiometry N [2] | stoichiometry N [3] | Substance
1 | 4 | 4 | – | Acinetobacter baumannii ApeQ (β-ketoacyl-ACP reductase of the aryl polyene biosynthesis gene cluster) (enzyme)
2 | – | – | 4 | Acinetobacter baumannii FabG (β-ketoacyl-ACP reductase of the fatty acid synthase gene cluster) (from UniProt V5VHN7 1-244) (enzyme)

From article PMC8041823, “Structural comparison of Acinetobacter baumannii β-ketoacyl-acyl carrier protein reductases in fatty acid and aryl polyene biosynthesis” (Scientific Reports, 2021)
